Experimental data taken from the supplement of paper PMC10201428.
± gives the standard deviation of the averaged measurements.

What was measured:
[1] = test system: VchCAST RNA-guided transposition machinery (E. coli BL21(DE3) host, lacZ target); test: relative integration efficiency (T-RL orientation) vs wild-type transposon end (log2 (normalized fold change)); transposon end mutated: left end; higher = more efficient transposition
Procedure, shortened: (§1)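 Barcoded pools of 1549 left-end or 1849 right-end transposon variants were cloned into a pUC57 mini-transposon donor. Each pool was co-transformed with a T7-driven effector plasmid (CRISPR array, tniQ-cas8-cas7-cas6, tnsA-tnsB-tnsC) into E. coli BL21(DE3) and plated with 0.1 mM IPTG at 37°C for 18 h. Input plasmids and genomic integration junctions were PCR-amplified and Illumina-sequenced, with two biological output replicates and four wild-type barcodes as reference. Relative integration efficiency is output/input barcode abundance fold change, normalised to wild-type barcodes and log-transformed.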

[2] = test system: VchCAST RNA-guided transposition machinery (E. coli BL21(DE3) host, lacZ target); test: relative integration efficiency (T-LR orientation) vs wild-type transposon end (log2 (normalized fold change)); transposon end mutated: left end; higher = more efficient transposition
Procedure, shortened: as §1

Row | Sequence | relative integration efficiency (log2) [1] | relative integration efficiency (log2) [2]
1 | AATGTTGTTGATGCAACCATATATTGATATCTCATAATTATTTATAATCAGCAACTTAACCACAAAACAACCATAAAGTGATATTTAACAAAAGTTGGTATTCAACTATAAAATGTGAATCGAGTATTTCAGCAAAACTACTGCAGTAAGAA | -3.25 ± 1.2 | -1.75 ± 1.5
2 | AATGTTGTTGATGCAACCATAAAGTGATATTTAATAATTATTTATAATCAGCAACTTAACCACACAACCATATATTGATATCTCACAAAACAACCATAAGTTGATATTTTTGTGAATCGAGTATTTCAGCAAAACTACTGCAGTAAGAAAGT | -4.27 ± 1.1 | -2.81 ± 1.1
3 | AATGTTGTTGATGCAACCATAAAGTGATATTTAATAATTATTTATAATCAGCAACTTAACCACAAAACAACCATATATTGCGCGAGACACCCCACCAACGCCTGGTCGCGGGGGTGTCCGATCTGATTTCAGCAAAACTACTGCAGTAAGAA | -4.62 ± 1.1 | -2.63 ± 0.53
4 | AATGTTGTTGATGCAACCATAAAGTGATATTTAATAATTATTTATAATCAGCAACTTACAACCATATATTGATATCTCACAAAACAACCATAAGTTGATATTTTACCACAAAATGTGAATCGAGTATTTCAGCAAAACTACTGCAGTAAGAA | -1 ± 0.61 | -1.12 ± 1.1
5 | AATGTTGTTGATGTGTTGATGCAACCATAAAGTGATATTTAATAATTATTTATAATCAGCAACTTAACCACAAAACAACCATATATTGATATCTCACAAAACAACCATAAGTTGATATTTTTGTGAATCGAGTATTTCAGCAAAACTACTGC | -0.31 ± 0.015 | -0.829 ± 0.034
6 | AATGTTGTTGATGTAATTATCATTTTATGGTTGATAATTATTTATAATCAGCAACTTAACCACAAAATAATTATCATTTTATGGTTGACAAAATAATTATCATTTTATGGTTGTGTGAATCGAGTATTTCAGCAAAACTACTGCAGTAAGAA | < -10 | < -10
7 | AATGTTGTTGATGCAACCATAAAGTGATATTTACGAGCCGAGCTCGTGCCCGGTGCCGCGGCAGACGCAACCATATATTGATATCTCACAAAACAACCATAAGTTGATATTTTTGTGAATCGAGTATTTCAGCAAAACTACTGCAGTAAGAA | -2.33 ± 0.72 | -2.47 ± 1.1
8 | AATGTTGTTGATGCAACCATAAAGTGATATTTAATAATTATTTATAATCAGCAACTTAACCACAAAACAACCATATATTGATATCTACAAAACAACCATAAGTTGATATTTTTGTGAATCGAGTATTTCAGCAAAACTACTGCAGTAAGAAA | -1.23 ± 0.67 | -0.176 ± 0.54
9 | AATGTTGTTGATGCAACCATAAAGTGATATTTAATAACAACCATATATTGATATCTCACAAAACAACCATAAGTTGATATTTTTGTGAATCGAGTATTTCAGCAAAACTACTGCAGTAAGAAAGTTACTTCGTGGTATGGGAGGATCAAGGA | -5.54 ± 1.1 | -3.02 ± 1.5
10 | AATGTTGTTGATGCAACCATAAAGTGATATTTAATAATTATTTATAATCAGCAACTTAACCACAAAATGTGAATCGAGTATTTCAGCAAAACCAACCATATATTGATATCTCACAAAACAACCATAAGTTGATATTTTTACTGCAGTAAGAA | -4.28 ± 1 | -3.73 ± 1.1
11 | AATGTTGTTGATGCAACCATAAAGTGATATTTAATAATTATTTATAATCAGCAACTTAACCACAAAACAACCATATATTGATATCTCACAAACACCAACGCCTGGTCGCGGGGGTGTCCGATCTGATTTCAGCAAAACTACTGCAGTAAGAA | -2.54 ± 0.9 | -0.664 ± 1.2
12 | AATGTTGTTGATGCAACCATAAAGTGATATTTAACAACCATATATTGATATCTCACAAAACAACCATAAGTTGATATTTTTAATTATTTATAATCAGCAACTTAACCACAAAATGTGAATCGAGTATTTCAGCAAAACTACTGCAGTAAGAA | -1.58 ± 0.69 | -0.212 ± 1.1
13 | AATGTTGTTGATGCAACCATAAAGTGATATTTAATAATTATTTATAATCAGCAACTTAACCACAAAACAACCATATATTGATATCTCACAAAAACCAACGCCTGGTCGCGGGGGTGTCCGATCTGATTTCAGCAAAACTACTGCAGTAAGAA | -2.38 ± 1.1 | -0.363 ± 1.2
14 | AATGTTGTTGATGCAACCATAAAGTGATATTTAATCAACCATAAAGTGATATTTAACTTAACCACAACAACCATATATTGATATCTCACAAAACAACCATAAGTTGATATTTTTGTGAATCGAGTATTTCAGCAAAACTACTGCAGTAAGAA | -4.54 ± 1.2 | -0.257 ± 1.2
15 | AATGTTGTTGATGTGTCAACCATAAAGTGATATTTAATAATTATTTATAATCAGCAACTTAACCACAAAACAACCATATATTGATATCTCACAAAACAACCATAAGTTGATATTTTTGTGAATCGAGTATTTCAGCAAAACTACTGCAGTAA | -1.14 ± 0.25 | -2.19 ± 1.3
16 | AATGTTGTTGAAACAACCATAAAGTGATAACAACGAATCAATTAAAATCATAGGCTTAATCGAAAAACAACCATATCTTGATATCGCATAAAACAACCATAAGTTGATATTTTGGTGAAACGAGTATTTCAGCAAAACTACTGCAGTAAGAA | 0.0434 ± 0.29 | -0.44 ± 0.53
17 | AATGTTGTTGATGCAACCATAAAGTGATATTTAATAATTATTTATAATCAGCAACTTAACCACAAAACAACCATATATTGATATCTCACAAAACAACCATAAGTTGATCGGGGGTGTCCGATCTGATTTCAGCAAAACTACTGCAGTAAGAA | -1.03 ± 0.49 | -1.32 ± 0.59
18 | AATGTTGTTGATGCAACCATAAAGTGATATTTAATAATTATTTATAATCAGCAACTTAACCACAAAACAACCATATATTGATATCTCACAACAACCATAAGTTGATATTTTTGTGAATCGAGTATTTCAGCAAAACTACTGCAGTAAGAAAG | -3.43 ± 0.95 | -1.51 ± 0.32
19 | AATGTTGTTGATGCAACCATAAAGTGATATTTAATAATTATTTATAATCAGCAACTTAACCACAAACAACCATATATTGATATCTCACAAAACAACCATAAGTTGATATTTTTGTGAATCGAGTATTTCAGCAAAACTACTGCAGTAAGAAA | -0.248 ± 0.24 | -0.356 ± 0.049
20 | AATGTTGTTGATGCAACCATAAAGTGATATTTAATAATTATTTATAATCACAACCATATATTGATATCTCACAAAACAACCATAAGTTGATATTTTTGTGAATCGAGTATTTCAGCAAAACTACTGCAGTAAGAAAGTTACTTCGTGGTATG | -8.21 ± 0.54 | -5.27 ± 1
21 | AATGTTGTTGATGCAACCATAAGTTGATATTTTATAATTATTTATAATCAGCAACTTAACCACAAAACAACCATAAAATGATAATTAACAAAAGTTGGTATTCAACTATAAAATGTGAATCGAGTATTTCAGCAAAACTACTGCAGTAAGAA | -2.57 ± 1.1 | -0.577 ± 0.68
22 | AATGTTGTTGATGCAACCATAAAGTGATATTTAATAATTATTTATAATCAGCAACTTAACCACAAAACAACCATATATTGATATCTACACCCCACCAACGCCTGGTCGCGGGGGTGTCCGATCTGATTTCAGCAAAACTACTGCAGTAAGAA | -2.46 ± 1 | -1.16 ± 1.5
23 | AATGTTGTTGATGCAACCATAAAGTGATATTTAATAATTATTTATAATCAGCAACTTAACCACAAAACAACCATATATTGATATAGACACCCCACCAACGCCTGGTCGCGGGGGTGTCCGATCTGATTTCAGCAAAACTACTGCAGTAAGAA | -2.48 ± 1.1 | -1.07 ± 1.7
24 | AATGTTGTTGATGCAACCATAAAGTGATATTTAATAGTACTGCGCGACTGAAATCATCATTAAAACGCAACCATATATTGATATCTCACAAAACAACCATAAGTTGATATTTTTGTGAATCGAGTATTTCAGCAAAACTACTGCAGTAAGAA | -4.94 ± 0.88 | -3.4 ± 1.6
